From patent US20110282033A1 (Ablynx, published 2011)
Numbering of substitutions follows the chain as printed.

T1: Recombinant human FGFR4/Fc chimera (R&D Systems Cat #685 FR) (human, UniProt P22455 22-369)
T1 construct: extracellular domain; Bought reagent; also called Fc-FGFR4; not shown: Fc part of the bought chimera (detected with anti-human IgG)
T1 sequence (looked up): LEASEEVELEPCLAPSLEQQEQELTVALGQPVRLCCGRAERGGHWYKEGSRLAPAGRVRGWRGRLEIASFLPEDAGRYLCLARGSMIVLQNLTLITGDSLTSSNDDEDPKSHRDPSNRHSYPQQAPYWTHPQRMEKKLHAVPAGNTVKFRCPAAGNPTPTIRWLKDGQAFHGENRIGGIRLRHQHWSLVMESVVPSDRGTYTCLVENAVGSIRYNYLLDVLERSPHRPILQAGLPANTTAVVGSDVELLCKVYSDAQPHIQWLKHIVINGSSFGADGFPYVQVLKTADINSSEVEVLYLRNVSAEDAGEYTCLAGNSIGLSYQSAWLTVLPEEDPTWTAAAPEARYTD

B1: 46-F11 (VHH)
VHH: EVQLVESGGGLVQPGGSLRLSCAASGFTFSSYAMSWVRQAPGKELEWVSGINSGGDRTVNADSVKGRFTVSRDNAKNTLYLQMNSLKPEDTALYYCAKSIPPTDDRNYWGQGTQVTVSS
B2: 42-H5 (VHH)
VHH: EVQLVESGGGLVQPGGSLTLSCAASGFTFSSYAMSWVRQAPGKGLELVSDINSGGISTYYADSVKGRFTISRDNAKNTLYLQMNSLKPEDTAVYYCKTDTLVAGTDDYWGQGTRVTVSS
notes: Purified Nanobody; Also used as negative control in the PDGFRβ assays
B3: 53-G3 (VHH)
VHH: EVQLVESGGGLVQAGGSLRLSCAASRRTFSSYAMGWFRQAPGKEREIVADISWNGSRTYYADSAKGRFTISRDNAKNTVYLQMNSLKPEDTAVYYCAAALFGGLGRAPSTHEYAYWGQGTQVTVSS
notes: Purified Nanobody; Also used as negative control in the FGFR4 assays
B4: 53-B5 (VHH)
VHH: B3 VHH with I47V
notes: Purified Nanobody

Experiments:
[1] = molecular target: dimeric VEGFR1/Fc chimera (R&D Systems Cat #321-FL) (UniProt P17948); assay: competition ELISA: VEGFR1-Fc (0.1 ug/ml) pre-mixed with Nanobody, binding to coated VEGF165 (0.2 ug/ml), detection with HRP anti-human IgG
dimeric VEGFR1/Fc chimera (R&D Systems Cat #321-FL), sequence (P17948 27-758 limits assumed, change not shown): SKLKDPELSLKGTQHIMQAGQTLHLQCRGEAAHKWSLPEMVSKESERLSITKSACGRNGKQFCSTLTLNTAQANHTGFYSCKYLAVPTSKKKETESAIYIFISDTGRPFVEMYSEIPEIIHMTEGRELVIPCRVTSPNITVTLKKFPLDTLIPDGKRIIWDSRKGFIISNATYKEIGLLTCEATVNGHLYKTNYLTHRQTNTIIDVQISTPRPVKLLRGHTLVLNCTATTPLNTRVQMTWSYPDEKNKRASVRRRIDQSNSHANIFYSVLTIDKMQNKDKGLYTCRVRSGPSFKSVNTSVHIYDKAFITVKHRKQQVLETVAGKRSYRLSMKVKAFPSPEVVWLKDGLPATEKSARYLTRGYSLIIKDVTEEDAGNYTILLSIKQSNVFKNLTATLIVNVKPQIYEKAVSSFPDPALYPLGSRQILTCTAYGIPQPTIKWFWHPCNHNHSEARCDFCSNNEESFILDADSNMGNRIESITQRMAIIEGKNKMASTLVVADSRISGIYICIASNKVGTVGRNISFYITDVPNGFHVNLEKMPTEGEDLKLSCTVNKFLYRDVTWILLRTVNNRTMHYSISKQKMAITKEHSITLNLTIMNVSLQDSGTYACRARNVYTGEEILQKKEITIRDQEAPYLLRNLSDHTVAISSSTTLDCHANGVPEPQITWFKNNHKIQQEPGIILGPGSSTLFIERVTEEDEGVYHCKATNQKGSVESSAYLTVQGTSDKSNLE

[2] = molecular target: T2, Recombinant human PDGFRβ/Fc chimera (R&D Systems Cat #385 PR) (human, UniProt P09619 33-532); assay: ELISA ligand competition with PDGFRβ-Fc and coated PDGF-BB (FIG. 5)
T2 construct: extracellular domain; Bought reagent; also called PDGFRP-Fc; not shown: Fc part of the bought chimera (captured and detected with anti-human IgG)
T2 sequence (P09619 33-532, change not shown): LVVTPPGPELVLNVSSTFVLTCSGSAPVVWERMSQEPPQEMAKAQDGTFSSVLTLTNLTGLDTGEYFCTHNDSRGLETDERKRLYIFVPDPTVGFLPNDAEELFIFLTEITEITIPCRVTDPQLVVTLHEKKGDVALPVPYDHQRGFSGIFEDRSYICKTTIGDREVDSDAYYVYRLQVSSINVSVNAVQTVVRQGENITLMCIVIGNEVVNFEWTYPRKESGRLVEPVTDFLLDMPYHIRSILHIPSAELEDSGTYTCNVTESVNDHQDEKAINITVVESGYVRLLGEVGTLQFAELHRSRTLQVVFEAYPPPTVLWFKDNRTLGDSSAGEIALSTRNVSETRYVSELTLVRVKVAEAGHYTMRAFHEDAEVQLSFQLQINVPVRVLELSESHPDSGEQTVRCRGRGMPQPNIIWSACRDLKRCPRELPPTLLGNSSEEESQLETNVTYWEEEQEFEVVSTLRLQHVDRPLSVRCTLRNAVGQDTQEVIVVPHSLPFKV
Experimental: Clones tested in the PDGFRβ binding assay were also screened for their ability to block PDGF-BB binding to PDGFRβ-Fc. For this, Nanobody containing periplasmic extracts, or selected purified Nanobodies, were used in an ELISA-based ligand competition setup. In short, 1.0 ug/ml (80 nM) recombinant human PDGF-BB (R&D Systems #220-BB) was coated in 96 well Maxisorp microtiter plates (Nunc) and blocked with 4% Marvel skimmed milk in PBS. In parallel, 1 ug/ml (12 nM) PDGFRβ-Fc chimera was incubated with periplasmic extracts or purified Nanobody. After 1 hour, the receptor-Nanobody pre-mixes were incubated 1 hour with the coated ligand. Bound PDGFRβ-Fc was detected using HRP-conjugated goat anti-human IgG (Jackson Immunoresearch, Cat #109-035-098). Blocking activity was determined as loss of OD signal, as compared to wells where no Nanobodies, or irrelevant Nb, had been added.

[3] = molecular target: T3, PDGFRb on HeLa cells (human, UniProt P09619 33-1106); assay: immunofluorescence on HeLa cells, 40 nM Nanobody, detection with mouse anti-myc and goat anti-mouse Alexa 488; PDGFR co-stained with a commercial antibody
T3 construct: whole, on cells; HeLa cells were not transfected
T3 sequence (P09619 33-1106): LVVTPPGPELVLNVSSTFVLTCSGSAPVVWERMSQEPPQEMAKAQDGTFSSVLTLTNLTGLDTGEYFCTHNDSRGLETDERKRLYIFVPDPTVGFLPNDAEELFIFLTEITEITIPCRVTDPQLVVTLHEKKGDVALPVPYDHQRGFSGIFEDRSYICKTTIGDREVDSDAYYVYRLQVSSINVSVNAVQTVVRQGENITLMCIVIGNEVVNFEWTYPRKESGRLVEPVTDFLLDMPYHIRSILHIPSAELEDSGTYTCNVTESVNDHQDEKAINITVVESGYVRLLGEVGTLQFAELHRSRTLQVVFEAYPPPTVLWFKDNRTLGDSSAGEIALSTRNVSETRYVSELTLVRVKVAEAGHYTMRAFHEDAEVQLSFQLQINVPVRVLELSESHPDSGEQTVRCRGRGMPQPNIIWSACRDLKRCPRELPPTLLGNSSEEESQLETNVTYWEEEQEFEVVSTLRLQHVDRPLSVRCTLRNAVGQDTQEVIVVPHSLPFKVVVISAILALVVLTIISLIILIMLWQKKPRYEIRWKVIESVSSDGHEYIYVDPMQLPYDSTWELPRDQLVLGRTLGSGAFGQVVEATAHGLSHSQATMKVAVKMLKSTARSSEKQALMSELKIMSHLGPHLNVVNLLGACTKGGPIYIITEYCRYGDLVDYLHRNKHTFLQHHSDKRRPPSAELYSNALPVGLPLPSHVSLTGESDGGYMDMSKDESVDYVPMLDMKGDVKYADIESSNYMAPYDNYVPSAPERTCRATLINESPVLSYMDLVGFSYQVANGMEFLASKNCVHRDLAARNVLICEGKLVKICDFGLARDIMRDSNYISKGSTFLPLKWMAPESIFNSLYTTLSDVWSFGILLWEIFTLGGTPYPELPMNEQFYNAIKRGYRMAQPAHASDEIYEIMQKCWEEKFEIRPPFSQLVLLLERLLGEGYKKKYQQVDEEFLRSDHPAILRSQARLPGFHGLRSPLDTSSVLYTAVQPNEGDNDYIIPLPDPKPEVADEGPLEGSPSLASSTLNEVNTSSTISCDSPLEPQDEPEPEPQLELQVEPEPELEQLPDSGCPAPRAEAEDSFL
Experimental: 40 nM of nanobody was added in medium and incubated 30 minutes at room temperature. Cells were put on ice to stop internalization and washed 3 times with ice-cold PBS. Cells were fixed by incubation for 30 minutes with 4% PFA at room temperature. After washing with PBS amine groups were blocked by incubation for 10 min. with 100 mM glycin in PBS at room temperature. After washing cells were permeabilized by incubation for 5 min. with 0.2% TritonX-100 in PBS at room temperature.
Cells were blocked by incubation in 2% Marvell/PBS for 15 minutes. Subsequently nanobodies were detected by incubation for 1 hour with mouse anti-myc (9E10) antibody in 2% Marvell/PBS and after washing 1 hour with goat-anti-mouse-alexa-488 in 2% Marvell/PBS in the dark. After washing coverslips were mounted with 4 ul mowiol and let to dry for at least 30 minutes. Dry slides were stored at −20 C.

[4] = molecular target: T2, Recombinant human PDGFRβ/Fc chimera …; assay: phage ELISA on PDGFRβ-Fc (0.1 ug/ml) captured by coated anti-human IgG, detection with HRP anti-M13
Experimental: In order to determine binding specificity to PDGFRβ-Fc, the clones were tested in an ELISA binding assay setup, using the monoclonal phage pools. Shortly, 1 ug/ml of Fc-capturing Ab (Rabbit anti-human IgG, DAKO # A423) was coated on Maxisorp ELISA plates (Nunc) and free binding sites were blocked using 4% Marvel skimmed milk in PBS. Next, 0.1 ug/ml receptor in 2% Marvel/PBS was captured. After a wash step with PBS, 10 ul of supernatant from the monoclonal phage inductions of the different clones in 100 ul 2% Marvel PBS were allowed to bind to the captured PDGFRP-Fc. […] Binding specificity was determined based on OD values compared to controls having received no phage.

[5] = molecular target: T1, Recombinant human FGFR4/Fc chimera (R&D …); assay: ELISA: periplasmic extract on coated FGFR4-Fc (500 ng/ml)
Experimental: In order to determine binding specificity to FGFR4, the clones were tested in an ELISA binding assay setup, using the monoclonal […]. Shortly, 500 ng/ml of Fc-FGFR4 (R&D Systems Cat #685 FR) was coated on Maxisorp ELISA plates (Nunc) and free binding sites were blocked using 4% Marvel skimmed milk in PBS. After a wash step with PBS, 10 ul of periplasmic extract from the monoclonal inductions of the different clones in 100 ul 2% Marvel PBS were allowed to bind to the FGFR4-Fc. […] 53-G3 was used as a reference since it was selected against PDGFRβ-Fc.

IC50 (read off the curve) [1] | binding result [2] | binding result [3] | binding result [4] | binding result [5] | Binder
1 nM |  |  |  |  | B1
 | no binding (tested: 50 nM) |  |  |  | B2
 |  | binds | binds | no binding | B3
 |  | binds | binds |  | B4
